From PMC8927860, “Completing the family of human Eps15 homology domains: Solution structure of the internal Eps15 homology domain of γ‐synergin” (Protein Science : A Publication of the Protein Society, 2022)
Entries after “also recorded” stand apart in the source; their conditions may differ. Ends that are not written are not given here.

Experiments:
[1] = target: T1, EH domain of γ‐synergin (EHγ, residues 279–388) (Homo sapiens, UniProt Q9UMZ2); experiment: Isothermal titration calorimetry of SCAMP1 fragments and peptides with EHγ; assay type: binding; conditions: ITC; for ∆H / ∆S / N (stoichiometry) / KD: 20 mM Tris, 100 mM NaCl, 2 mM CaCl2 pH 7.5, 20°C, one site binding model; for ∆H / ∆S / KD: n.b. = no binding; for N (stoichiometry) / KD: VP-ITC, 50–200 μM EHγ in cell, ligand 700–2000 μM
T1 construct: His-tag with TEV cleavage site (N, cleaved yes); made in house; host or cells: Escherichia coli BL21(DE3)
T1 sequence (Q9UMZ2 279-388): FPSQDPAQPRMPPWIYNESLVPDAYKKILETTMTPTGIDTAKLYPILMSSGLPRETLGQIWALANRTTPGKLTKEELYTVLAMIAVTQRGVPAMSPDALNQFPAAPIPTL
Procedure: ITC measurements were performed on a VP‐ITC instruments (GE Healthcare, Chalfont St. Giles, UK). The calorimetric cell (with a total cell volume of 1,400 μl) contained 50–200 μM EHγ in 20 mM Tris, 100 mM NaCl, 2 mM CaCl2 pH 7.5. SCAMP1 fragments and peptides A, B, C at 700–2000 μM were titrated into the cell at 20°C. The heat generated after each ligand injection was obtained by integration of the calorimetric signal. Resulting binding isotherms were analyzed according to an one site binding model using the Origin software (OriginLab Corp., Northampton, MA, USA).

[2] = target: T1, EH domain of γ‐synergin (EHγ, residues 279–388); experiment: Analytical size exclusion chromatography of EHγ–SCAMP1″ complex; assay type: binding; conditions: complex compared with isolated EHγ and SCAMP1″; 100 μM EHγ and/or 100 μM SCAMP 1–52, Superdex 200 5/150 GL, 20 mM Tris pH 7.5, 100 mM NaCl, 2 mM CaCl2, 4°C
Procedure: The quality and oligomeric state of the EHγ construct was assessed on an analytical gel filtration column (Superdex 75 5/150 GL, GE Healthcare). To guarantee reproducible and reliable gel filtration runs, an ÄKTAmicro™ (GE Healthcare) was coupled to an auto sampler, which automatically injected with high‐precision 25 μl of protein sample.[36] Analytical gel filtration runs were performed in duplicates in the cold room at a flow rate of 0.2 ml/min in gel filtration buffer (20 mM Tris pH 7.5, 100 mM NaCl, 2 mM CaCl2). The used EHγ construct was injected spanning a concentration range of 10–1,000 μM. The column has been calibrated with protein standards ranging from 6.5 to 75 kDa. Interactions between EHγ and the SCAMP 1–52 fragment were also probed using this analytical gel filtration setup; the proteins alone or the potential complex (at concentrations of 100 μM EHγ and/or 100 μM SCAMP 1–52) were applied to a Superdex™ 200 5/150 GL analytical gel filtration column and analyzed. Analytical gel filtration runs were performed at 4°C at a flow rate of 0.2 ml/min in the gel filtration buffer.

[3] = target: T2, EH domain of human γ-synergin, longest construct (residues 279–388) (human, UniProt Q9UMZ2 279-388); experiment: ITC
T2 chain: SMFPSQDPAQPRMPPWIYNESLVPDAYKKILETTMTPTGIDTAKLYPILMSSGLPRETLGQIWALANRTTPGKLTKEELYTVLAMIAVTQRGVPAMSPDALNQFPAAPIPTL

[4] = target: T3, EH domain of human γ-synergin, longest construct (residues 279–388) (human, UniProt Q9UMZ2 279-388); experiment: ITC; EHγ 50–200 μM in the cell, SCAMP1 fragments and peptides A, B, C at 700–2000 μM titrated in; 20 mM Tris, 100 mM NaCl, 2 mM CaCl2 pH 7.5, 20°C; one site binding model; conditions: both partners purified
T3 construct: two additional residues (Serine-Methionine) left at the N-terminus by the vector pNIC28-Bsa4 after TEV cleavage of the tag; γ-synergin, human, residues 279-388 (EH domain with N- and C-terminal structured extensions); also called EHγ; EHγ domain; source: E. coli BL21(DE3), purified (Ni-IMAC, TEV cleavage, SEC on Superdex 75); 15N-labelled in M9 medium for NMR; not shown: His tag, N-terminal, …
T3 sequence: T2 chain

[5] = target: T3, EH domain of human γ-synergin, longest …; experiment: NMR titration; unlabelled peptide added stepwise to 15N-labelled EHγ, 1H-15N HSQC, up to n = 2 (Pep A, C) and n = 3.2 (Pep B); 20 mM Tris pH 7.5, 100 mM NaCl, 2 mM CaCl2, 10% D2O, 298 K; joint fit of I324, L325, W339 to a one site binding model; conditions: both partners purified

ADPDLNNPFKDPSVTY-NH2 [Peptide B]
∆H [1]: -12.0 ± 1.5 kcal/mol
∆S [1]: -23.3 cal/mol/deg
N (stoichiometry) [1]: 1.1 ± 0.2

GLDEYNPFSDSRT-NH2 [Peptide C]
∆H [1]: -22.9 ± 2.7 kcal/mol
∆S [1]: -59.8 cal/mol/deg
N (stoichiometry) [1]: 1.0 ± 0.1

SCAMP1″: NPF repeat rich fragment of SCAMP1 possessing three NPF-motifs (residues 1–52) (MSDFDSNPFADPDLNNPFKDPSVTQVTRNVPPGLDEYNPFSDSRTPPPGGVK; UniProt O15126 1-52, looked up, fragment)
complex formation by SEC (elution) [2]: lower retention volume
N (stoichiometry) [1]: 0.33 ± 0.01
enthalpic/entropic contribution to binding (in words) ([1]; SCAMP1″ (three NPF-motifs) compared to sum of / individual peptides A, B, C): no enthalpic gain; also recorded: largely reduced entropic penalty

SDFDSNPFADPDLNY-NH2 [Peptide A]
∆H [1]: -21.1 ± 2.4 kcal/mol
∆S [1]: -55.2 cal/mol/deg
N (stoichiometry) [1]: 1.2 ± 0.1

B1: SCAMP1″, NPF repeat rich N-terminal fragment of secretory carrier membrane protein 1 (residues 1–52) (domain or fragment, human (hORFeome collection))
chain: SMMSDFDSNPFADPDLNNPFKDPSVTQVTRNVPPGLDEYNPFSDSRTPPPGGVK
notes: two additional residues (Serine-Methionine) left by the vector pNIC28-Bsa4 after TEV cleavage (same cloning procedure as for EHγ); secretory carrier membrane protein 1 (SCAMP1), residues 1-52, with three NPF repeats; gene from the hORFeome collection; also called SCAMP 1–52 fragment; NPF-repeats from the N-terminal domain of SCAMP1; source: E. coli BL21(DE3), purified (Ni-IMAC, TEV cleavage, …)
Kd [3]: 9.9 µM
binding result [4]: binds

B2: peptide A, SCAMP1 derived peptide with a single NPF-repeat (peptide)
chain: SDFDSNPFADPDLNY-NH2
Kd [3]: 250 µM
Kd [5]: 110 ± 10 µM

B3: SCAMP1 (protein)
chain: MSDFDSNPFADPDLNNPFKDPSVTQVTRNVPPGLDEYNPFSDSRTPPPGGVKMPNVPNTQPAIMKPTEEHPAYTQIAKEHALAQAELLKRQEELERKAAELDRREREMQNLSQHGRKNNWPPLPSNFPVG
modifications: N-terminal cytosolic SCAMP1 construct, residues 1-130 (NPF repeats plus coiled coil, no TM helices); Ser-Met left at the N-terminus after TEV cleavage is omitted; human inferred from the hORFeome source
Kd [3]: 9 µM

B4: peptide C, SCAMP1 derived peptide with a single NPF-repeat (peptide)
chain: GLDEYNPFSDSRT-NH2
Kd [3]: 90 µM
Kd [5]: 30 ± 20 µM

B5: peptide B, SCAMP1 derived peptide with a single NPF-repeat (peptide)
chain: ADPDLNNPFKDPSVTY-NH2
Kd [3]: 140 µM
Kd [5]: 120 ± 30 µM

B6: SCAMP1: N-terminal SCAMP1 construct devoid of transmembrane helices, comprising NPF repeat rich motifs and coiled coil (residues 1–130) (protein, UniProt O15126 1-130, looked up, fragment)
chain: B3 chain
∆H [1]: -7.5 ± 1.1 kcal/mol
∆S [1]: -2.3 cal/mol/deg
∆H ([1]; listed as SCAMP1’): n.b.
∆S ([1]; listed as SCAMP1’): n.b.
∆H ([1]; listed as SCAMP1’’): -41.3 ± 1.3 kcal/mol
∆S ([1]; listed as SCAMP1’’): -118.0 cal/mol/deg
N (stoichiometry) [1]: 0.38 ± 0.04
N (stoichiometry) ([1]; listed as SCAMP1’): n.b.
N (stoichiometry) ([1]; listed as SCAMP1’’): 0.33 ± 0.01
KD ([1]; listed as SCAMP1’): n.b.
KD ([1]; listed as SCAMP1’’): 9.9 ± 0.4 µM

B7: SCAMP1′: coiled coil domain of N-terminal SCAMP1, devoid of NPF-repeats (residues 65–130) (protein, UniProt O15126 65-130, looked up, fragment)
chain: KPTEEHPAYTQIAKEHALAQAELLKRQEELERKAAELDRREREMQNLSQHGRKNNWPPLPSNFPVG
N (stoichiometry) [1]: n.b.
KD [1]: n.b.
